Source: patent US20220411483A1 (Chugai, published 2022)
Numbering of substitutions follows the chain as printed. Read-outs that look alike come from different tables or passages of the source.

T1: FcgRIIaR (human, UniProt P12318 34-217)
T1 construct: extracellular domain; also called FcγRIIa R type; FcγRIIa (R type)
T1 sequence (looked up): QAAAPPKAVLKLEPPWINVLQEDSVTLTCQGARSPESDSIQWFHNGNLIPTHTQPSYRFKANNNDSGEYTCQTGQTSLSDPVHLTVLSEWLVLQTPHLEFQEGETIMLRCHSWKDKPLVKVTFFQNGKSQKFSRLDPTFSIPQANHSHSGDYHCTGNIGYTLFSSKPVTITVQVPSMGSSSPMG

T2: FcgRIIaH (human, UniProt P12318 34-217)
T2 construct: extracellular domain; also called FcγRIIa H type
T2 sequence (looked up): T1 sequence (looked up) with R134H

T3: FcgRIIb (human, UniProt P31994 43-217)
T3 construct: extracellular domain; also called FcγRIIb
T3 sequence (looked up): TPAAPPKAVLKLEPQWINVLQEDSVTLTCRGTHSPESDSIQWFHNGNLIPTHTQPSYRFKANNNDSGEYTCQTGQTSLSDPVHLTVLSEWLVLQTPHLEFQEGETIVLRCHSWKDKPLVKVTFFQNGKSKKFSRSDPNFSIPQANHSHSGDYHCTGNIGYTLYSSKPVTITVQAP

T4: mouse FcγRIV (mouse, UniProt A0A0B4J1G0 21-203)
T4 construct: also called mFcγRIV; mFc γ RIV
T4 sequence: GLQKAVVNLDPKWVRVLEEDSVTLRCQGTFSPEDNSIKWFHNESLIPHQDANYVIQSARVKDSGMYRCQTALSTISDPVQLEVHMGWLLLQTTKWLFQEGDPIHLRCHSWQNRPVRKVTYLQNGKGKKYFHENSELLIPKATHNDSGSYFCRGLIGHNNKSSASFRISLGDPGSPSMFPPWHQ

T5: mouse FcγRI (mouse, UniProt P26151 25-297, limits assumed)
T5 construct: also called mFcγRI; mFc γ RI
T5 sequence (looked up): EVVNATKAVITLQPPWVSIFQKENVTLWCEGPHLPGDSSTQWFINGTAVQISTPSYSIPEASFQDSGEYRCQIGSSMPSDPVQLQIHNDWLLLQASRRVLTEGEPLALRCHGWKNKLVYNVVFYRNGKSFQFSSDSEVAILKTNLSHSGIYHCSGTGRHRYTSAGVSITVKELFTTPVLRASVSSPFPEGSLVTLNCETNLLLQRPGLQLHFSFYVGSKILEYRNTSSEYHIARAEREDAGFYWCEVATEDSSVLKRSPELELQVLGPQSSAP

B1: IL6R-P712/IL6R-L (antibody, human IgG1, kappa)
heavy: QVQLQESGPGLVKPSETLSLTCAVSGHSISHDHAWSWVRQPPGEGLEWIGFISYSGITNYNPSLQGRVTISRDNSKNTLYLQMNSLRAEDTAVYYCARSLARTTAMDYWGEGTLVTVSSASTKGPSVFPLAPSSKSTSGGTAALGCLVKDYFPEPVTVSWNSGALTSGVHTFPAVLQSSGLYSLSSVVTVPSSSLGTQTYICNVNHKPSNTKVDKKVEPKSCDKTHTCPPCPAPDLLGGDSVFLFPPKPKDTLMISRTPEVTCVVIDVRPEDGEVKFNWYVDGVEVHNAKTKPREEQENSTYRVVSVLTVLHQDWLNGKEYKCKVSNKALPAPIEKTISKAKGQPREPQVYTLPPSRDELTKNQVSLTCLVKGFYPSDIAVEWESNGQPENNYKTTPPVLDSDGSFFLYSKLTVDKSRWQQGNVFSCSVMHEALHNHYTQKSLSLSP
light: not shown
B2: IL6R-P626/IL6R-L (antibody, human IgG1, kappa)
heavy: B1 heavy with L236R, R269A, P270E, E298Y
light: not shown
B3: IL6R-P694/IL6R-L (antibody, human IgG1, kappa)
heavy: B1 heavy with P270E
light: not shown
B4: IL6R-P730/IL6R-L (antibody, human IgG1, kappa)
heavy: B1 heavy with G239Q
light: not shown
B5: IL6R-P652/IL6R-L (antibody, human IgG1, kappa)
heavy: B1 heavy with G239D, R269Y, P270E, E298D, A332R, P398M
light: not shown
B6: IL6R-P631/IL6R-L (antibody, human IgG1, kappa)
heavy: B1 heavy with D267N, R269A, P270E, E298Y
light: not shown
B7: VH3/L (WT)-mIgG1-mF44 (antibody)
heavy: QVQLQESGPGLVKPSETLSLTCAVSGHSISHDHAWSWVRQPPGEGLEWIGFISYSGITNYNPSLQGRVTISRDNSKNTLYLQMNSLRAEDTAVYYCARSLARTTAMDYWGEGTLVTVSSAKTTPPSVYPLAPGSAAQTNSMVTLGCLVKGYFPEPVTVTWNSGSLSSGVHTFPAVLQSDLYTLSSSVTVPSSTWPSETVTCNVAHPASSTKVDKKIVPRDCGCKPCICTVPEVSSVFIFPPKPKDVLTITLTPKVTCVVVDISKDDPEVQFSWFVDDVEVHTAQTQPREEQFNSTFRSVSELPIMHQDWLNGKEFKCRVNSADFPAPIEKTISKTKGRPKAPQVYTIPPPKEQMAKDKVSLTCMITDFFPEDITVEWQWNGQPAENYKNTQPIMDTDGSYFVYSKLNVQKSNWEAGNTFTCSVLHEGLHNHHTEKSLSHSPGK
light: not shown
B8: VH3/L (WT)-mIgG1 (antibody)
heavy: B7 heavy with D323A
light: not shown
notes: mouse IgG1 constant region
B9: VH3/L (WT)-mIgG1-mF46 (antibody)
heavy: B7 heavy with S235D
light: not shown

Columns and labels:
FcgRIIaR [1] = biological target: T1, FcgRIIaR; test: SPR (Biacore)
FcgRIIaH [2] = biological target: T2, FcgRIIaH; test: SPR (Biacore)
FcgRIa [3] = biological target: T6, FcgRIa (human, UniProt P12314 16-292); test: SPR (Biacore)
T6 construct: also called FcγRIa; FcγRI

FcgRIIb [4] = biological target: T3, FcgRIIb; test: SPR (Biacore)
FcgRIIIaV [5] = biological target: T7, FcgRIIIaV (human, UniProt P08637 17-208); test: SPR (Biacore)
T7 construct: extracellular domain; also called FcγRIIIa V type

FcgRIIaR [6] = biological target: T1, FcgRIIaR; test: SPR, amount bound per captured antibody
FcgRIIb [7] = biological target: T3, FcgRIIb; test: SPR, amount bound per captured antibody
FcgRIIaR [8] = biological target: T1, FcgRIIaR; test: SPR (Biacore); remark: listed apart in the source
FcgRIIaH [9] = biological target: T2, FcgRIIaH; test: SPR (Biacore); remark: listed apart in the source
FcgRIa [10] = biological target: T6, FcgRIa; test: SPR (Biacore); remark: listed apart in the source
FcgRIIb [11] = biological target: T3, FcgRIIb; test: SPR (Biacore); remark: listed apart in the source
FcgRIIIaV [12] = biological target: T7, FcgRIIIaV; test: SPR (Biacore); remark: listed apart in the source
mouse FcγRIV = biological target: T4, mouse FcγRIV; test: SPR (Biacore), method of Reference Example 2
Experimental: (§1) The binding activities of these antibodies to the mouse FcγRs were evaluated by the method of Reference Example 2.

mouse FcγRI = biological target: T5, mouse FcγRI; test: SPR (Biacore), method of Reference Example 2
Experimental: as §1

T6 sequence (P12314 16-292): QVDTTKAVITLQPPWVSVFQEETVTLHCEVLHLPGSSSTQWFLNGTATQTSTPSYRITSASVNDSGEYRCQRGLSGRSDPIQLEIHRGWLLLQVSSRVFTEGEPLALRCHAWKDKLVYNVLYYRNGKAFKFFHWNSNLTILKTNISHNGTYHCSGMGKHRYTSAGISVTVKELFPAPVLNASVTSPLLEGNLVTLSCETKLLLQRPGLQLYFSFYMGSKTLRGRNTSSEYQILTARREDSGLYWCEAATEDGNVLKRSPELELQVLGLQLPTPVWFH
T7 sequence (P08637 17-208 F176V): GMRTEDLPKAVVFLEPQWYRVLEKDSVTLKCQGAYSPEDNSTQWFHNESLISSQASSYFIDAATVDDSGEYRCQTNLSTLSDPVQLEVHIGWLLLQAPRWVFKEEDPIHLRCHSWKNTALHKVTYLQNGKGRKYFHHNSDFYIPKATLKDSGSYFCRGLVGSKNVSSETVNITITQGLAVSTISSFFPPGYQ

| Binder | Relative FcgRIIaR-binding Activity (FcgRIIaR [1]) | Relative FcgRIIaH-binding Activity (FcgRIIaH [2]) | Relative FcgRIa-binding Activity (FcgRIa [3]) | Relative FcgRIIb-binding Activity (FcgRIIb [4]) | Relative FcgRIIIaV-binding Activity (FcgRIIIaV [5]) | Relative FcgRIIaR-binding Activity (FcgRIIaR [6]) [IL6R-G1d/IL6R-L=100] | Relative FcgRIIb-binding Activity (FcgRIIb [7]) [IL6R-G1d/IL6R-L=100] | Relative FcgRIIaR-binding Activity (FcgRIIaR [8]) | Relative FcgRIIaH-binding Activity (FcgRIIaH [9]) | Relative FcgRIa-binding Activity (FcgRIa [10]) | Relative FcgRIIb-binding Activity (FcgRIIb [11]) | Relative FcgRIIIaV-binding Activity (FcgRIIIaV [12]) | binding result (mouse FcγRIV) | binding result (mouse FcγRI) |
| --- | --- | --- | --- | --- | --- | --- | --- | --- | --- | --- | --- | --- | --- | --- |
| B1 | 0.017 KD(G1d)/KD(variant) | 0.003 KD(G1d)/KD(variant) | 0.0005 KD(G1d)/KD(variant) | 1.52 KD(G1d)/KD(variant) | 0.004 KD(G1d)/KD(variant) |  |  |  |  |  |  |  |  |  |
| B2 |  |  |  |  |  | 24.4 | 129 | 0.041 KD(G1d)/KD(variant) | 0.005 KD(G1d)/KD(variant) | 0.0004 KD(G1d)/KD(variant) | 1.9 KD(G1d)/KD(variant) | 0.005 KD(G1d)/KD(variant) |  |  |
| B3 | 0.02 KD(G1d)/KD(variant) | 0.005 KD(G1d)/KD(variant) | 0.0008 KD(G1d)/KD(variant) | 1.83 KD(G1d)/KD(variant) | 0.007 KD(G1d)/KD(variant) |  |  |  |  |  |  |  |  |  |
| B4 | 0.013 KD(G1d)/KD(variant) | 0.003 KD(G1d)/KD(variant) | 0.0002 KD(G1d)/KD(variant) | 0.504 KD(G1d)/KD(variant) | 0.005 KD(G1d)/KD(variant) |  |  |  |  |  |  |  |  |  |
| B5 |  |  |  |  |  | 27.5 | 149 | 0.051 KD(G1d)/KD(variant) | 0.006 KD(G1d)/KD(variant) | 0.0005 KD(G1d)/KD(variant) | 4.18 KD(G1d)/KD(variant) | 0.005 KD(G1d)/KD(variant) |  |  |
| B6 |  |  |  |  |  | 26.7 | 110 | 0.048 KD(G1d)/KD(variant) | 0.01 KD(G1d)/KD(variant) | 0.03 KD(G1d)/KD(variant) | 1.16 KD(G1d)/KD(variant) | 0.007 KD(G1d)/KD(variant) |  |  |
| B7 |  |  |  |  |  |  |  |  |  |  |  |  | no binding | no binding |
| B8 |  |  |  |  |  |  |  |  |  |  |  |  | no binding | no binding |
| B9 |  |  |  |  |  |  |  |  |  |  |  |  | no binding | no binding |
